Experimental data taken from publication doi:10.1101/255976.

Columns and labels:
BRCA1 = BRCA1 (human, UniProt P38398 1-1863); test: EMSA
BRCA1;BARD1 = BRCA1;BARD1 (human;human, UniProt P38398;Q99728 1-1863;1-777, |); test: EMSA

B1: 50 bp DNA:RNA hybrid X12-3 DNA/X12-4C RNA (DNA:RNA)
DNA: GACGTCATAGACGATTACATTGCTAGGACATGCTGTCTAGAGACTATCGC
RNA: GCGAUAGUCUCUAGACAGCAUGUCCUAGCAAUGUAAUCGUCUAUGACGUC
- binding result (BRCA1): binds
- binding result (BRCA1;BARD1): binds
